One may read the EC50 as the concentration giving half of the maximal effect. Broadly, the koff is the rate constant with which the complex falls apart. As a reminder, the kon is the second-order rate constant of association. As a reminder, the IC50 is the concentration that inhibits the measured activity by half.

This note sets out measurements from US20170152313A1 (Novartis, published 2017).

Experiment [1] has as its target T1, Human LOX-1 full-length protein (human, UniProt P78380 1-273).
T1 construct: also called huLOX-1/HEK293 cells; human LOX-1 transfected HEK293 cells
Kind of experiment: flow cytometry, biotinylated antibody on primary human neutrophils, PE-streptavidin. As for the experimental part:
The resulting cell suspension was carefully transferred to a 50 mL conical tube containing 10 mL Ficoll-Paque, layering the cell suspension on top of the Ficoll-Paque, and the tube was then centrifuged at 1400 rpm (400×g) for 30 minutes at room temperature. The top layer was the discarded. To the resulting cell pellet, 10 mL 0.2% ice-cold sodium chloride was added, and the mixture was incubated for exactly 30 seconds to lyse red blood cells; 10 mL of ice-cold 1.6% sodium chloride was added to restore isotonicity. The cell suspension was then centrifuged at 1200 rpm ([…]) for 5 minutes. The supernantant was then discarded, and the red blood cell lysis procedure repeated once more. The resulting cell pellet was resuspended in FACS buffer (2 mM EDTA, 1% BSA, and 0.2% sodium azide in PBS) at a cell density of 2×10⁶ cells/mL.
The cell suspension containing freshly isolated human neutrophils was transferred (50 ul/well) to wells of a 96-well V-bottom plate (1×10⁵ cells/well) (Costar, catalog number 3894). Blocking buffer (4% normal rabbit serum diluted in FACS buffer (2 mM EDTA, 1% BSA, and 0.2% sodium azide in PBS) (50 ul/well) was added and the plate was incubated on ice for 30 minutes. Biotinylated LOX-1 antibody (10 μl) in FACS buffer was then added to the wells at final concentrations ranging from 1 ng/ml to 5 ug/mL, and the plate was incubated on ice for 30 minutes. The plate was then centrifuged at 1200 rpm (250-300×g) for 3 minutes and supernatant was discarded. The cells were then washed twice with 0.2 mL FACS buffer, and then 0.1 mL of PE-streptavidin (BD Pharmingen catalog number 554061) diluted at 1:250 in FACS buffer was added, and the plate incubated on ice for 30 minutes. The plate was then centrifuged again, supernatant discarded, and the cells washed twice with 0.2 mL FACS buffer. Cells were then resuspended in 0.1 mL of fixing buffer (FACS buffer with 2% paraformaldehyde) and analyzed using a FACS instrument. To determine an EC50 value for neutrophil binding by LOX-1 antibodies, the LOX-1 staining intensity determined by FACS was plotted vs. the concentration of the antibody as shown in FIG. 5 and Table 3.

The target of experiment [2] is T2, APP-Avi-soluble cynomolgus monkey LOX-1 (61-273) (cynomolgus monkey, biotinylated at the Avi tag when immobilised in the SET assay).
T2 construct: Expressed and purified in the same way as the human protein; also called cynomolgus monkey soluble LOX-1; Cynomolgus Monkey Soluble APP-Avi-LOX-1
T2 sequence (chain, as listed by the source): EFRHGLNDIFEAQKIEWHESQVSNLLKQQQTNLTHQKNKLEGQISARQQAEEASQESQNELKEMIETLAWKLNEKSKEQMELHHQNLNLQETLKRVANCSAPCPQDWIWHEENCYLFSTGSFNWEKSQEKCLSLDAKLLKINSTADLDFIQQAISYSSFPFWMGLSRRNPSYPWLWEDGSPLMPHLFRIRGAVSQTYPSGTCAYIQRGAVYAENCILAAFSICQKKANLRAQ
Kind of experiment: SPR Biacore T200, antibody captured by anti-mouse IgG, cynomolgus soluble LOX-1 as analyte, 1:1 model. As for the experimental part:
For murine LOX-1 antibody E2E10 binding to human and cynomolgus monkey LOX-1, a Biacore T200 was primed with fresh, filtered running buffer (1×HBS-EP+(GE catalog number BR-1006-60)). A CM5 chip (GE catalog number BR-1005-30) was prepared using a mouse antibody capture kit (GE catalog number BR-1008-38) and an amine coupling kit (GE catalog number BR-1000-50). Briefly, a new chip was activated with EDC/NHS at 10 ul/min for 420 sec. Anti-mouse IgG antibody was immobilized at […] 10 mM acetate pH 5.0 at 10 ul/min for 420 sec. The chip surface was deactivated with 1M ethanolamine solution (10 ul/min for 420 sec) and then conditioned three times with 10 mM Glycine-HCl, pH 1.5 (GE catalog number BR-1003-54) at 60 ul/min for 30 sec.
For sample cycles, 1) Ms-anti-Hu LOX-1 mAb was captured on flow cell 2, 3, or 4 for a pre-determined amount of time that allowed for capture of approximately 20RUs at 10 ul/min. Flow cell 1 was used as a reference, 2) running buffer for 30s at 60 ul/min, 3) human soluble LOX-1 or cynomolgus monkey soluble LOX-1 diluted in running buffer at various concentrations (with at least two duplicate samples and multiple buffer blanks for 350 sec at 60 ul/min, with either 750 sec or 3000 sec dissociation time), 4) regeneration buffer for 60 sec at 60 ul/min, 5) running buffer for 35s at 60 ul/min, extra wash with running buffer and including a carry-over control. Data were analyzed using buffer blanks, reference blank, and a 1:1 binding model for curve fitting in order to determine association and dissociation rate constants (ka and kd) and equilibrium binding constants (KD) (see results for E2E10 in Tables 7-8).
On the technique in general: In SPR one partner is held on a chip, and binding of the other changes the refractive index at the surface.

The target in experiment [3] is T1, Human LOX-1 full-length protein. The experiment can be described thus: flow cytometry, inhibition of dil-OxLDL binding to huLOX-1/HEK293 cells. As for the experimental part: The huLOX-1/HEK293 cells were resuspended at 1×10⁶ cells/mL and seeded 50 μL per well into a 96-well V-bottom plate (5×10⁴ cells per well). LOX-1 or irrelevant control antibodies in assay medium (DMEM+10% FBS) were then added to the cells. Typical final antibody concentrations ranged from 0.006 μg/mL to 20 μg/mL. The cells were incubated at 37° C. for 1 hour, then washed twice with warm HBSS. Dil-oxLDL (human dil-labeled “High Oxidized” LDL, Kalen Biomedical, catalog number 770262-9; Dil is 1,1′-dioctadecyl-3,3,3′,3′-tetramethylindocarbocyanine perchlorate) in 50 ul assay medium was then added to a final concentration 30 to 100 μg/mL. The cells were then incubated at 37° C. for 2 hours, and then washed twice with FACS buffer (2% FBS in PBS). Cells were then analyzed for intensity of Di-I fluorescence by flow cytometry, as depicted in FIG. 2 and Table 3.
Background: A flow cytometer gives signals particle by particle.

Experiment [4] shares this target. Kind of experiment: cell-based or functional assay.

B1: E2E10 (murine parental) (antibody, IgG1, V domains shown)
VH: QVQLQQSGAELVRPGASVKLSCKALGYTFTDYEMHWVKQTPVHGLEWIGAIHPGSGGAAYIQKFKGKATLTADKSSSTAHMELSSLTSEDSAVYYCTRWLPMDYWGQGTSVTVSS
VL: DIQMTQSSSYLSVSLGGRVTITCKASDHINNWLAWYQQKPGNAPRLLISGATSLETGVPSRFSGSGSGKDYTLSITGLQTEDVATYYCQQYLITPYTFGGGTKLEIK
notes: Mouse hybridoma monoclonal antibody, IgG1 with a kappa light chain; Biotinylated in the SET and neutrophil assays; also called Clone 39.1E2E10; mouse parental
B1 came in with an EC50 in experiment [1] of 0.04 µg/mL. In experiment [2], this molecule had a Kd of 0.015 nM, a koff of 2.5e-05 s⁻¹ and a kon of 1.7e+06 M⁻¹ s⁻¹. The molecule further yielded an IC50 in experiment [3] of 4 nM. Further, the “Reactive oxygen species (ROS) generation in huLOX-1/HEK293 cells (IC50, nM)” value in experiment [4] amounted to 5.7 nM.
